Source: PMC5612953, “Stable MOB1 interaction with Hippo/MST is not essential for development and tissue growth control” (Nature Communications, 2017)

T1: phospho-MOB1(K104E/K105E), full length, recombinant (human, UniProt Q9H8S9 1-216, K104E | K105E, phosphorylated in vitro by MST2 (residues 2-308); the paper names Thr12 and Thr35 as the MST1/2 phosphorylation sites of MOB1)
T1 sequence: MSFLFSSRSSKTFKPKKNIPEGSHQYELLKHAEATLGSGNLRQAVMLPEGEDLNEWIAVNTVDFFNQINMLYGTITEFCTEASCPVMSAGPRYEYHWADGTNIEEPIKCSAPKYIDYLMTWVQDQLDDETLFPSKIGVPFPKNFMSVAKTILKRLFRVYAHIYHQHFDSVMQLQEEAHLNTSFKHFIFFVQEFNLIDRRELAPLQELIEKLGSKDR

T2: LATS2 (603-666, V610Y) (human, UniProt Q9NRM7 603-666, V610Y)
T2 sequence: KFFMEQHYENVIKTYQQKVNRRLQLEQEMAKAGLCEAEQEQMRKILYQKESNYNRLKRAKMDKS

T3: human LATS2 (residues 603-666), NTR (human, UniProt Q9NRM7 603-666)
T3 chain: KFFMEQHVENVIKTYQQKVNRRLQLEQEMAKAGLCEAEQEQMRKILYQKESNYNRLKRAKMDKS

T4: human NDR1 (residues 24-87), NTR (human, UniProt Q15208 24-87)
T4 chain: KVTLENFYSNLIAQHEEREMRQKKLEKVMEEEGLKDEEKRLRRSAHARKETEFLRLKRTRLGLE

T5: LATS1 (640-703, V647Y) (human, UniProt O95835 640-703, V647Y)
T5 sequence: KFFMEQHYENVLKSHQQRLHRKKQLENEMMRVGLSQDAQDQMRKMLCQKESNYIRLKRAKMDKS

T6: human LATS1 (residues 640-703), NTR (human, UniProt O95835 640-703)
T6 chain: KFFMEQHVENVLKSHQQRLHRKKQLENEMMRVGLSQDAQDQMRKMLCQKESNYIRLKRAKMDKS

T7: human NDR2 (residues 25-88), N-terminal regulatory domain (NTR) (human, UniProt Q9Y2H1 25-88)
T7 construct: human NDR2, residues 25-88 (NTR); also called NDR2 (25-88); NTR of NDR2; source: E. coli BL21(DE3), purified (Ni-NTA)
T7 sequence (looked up): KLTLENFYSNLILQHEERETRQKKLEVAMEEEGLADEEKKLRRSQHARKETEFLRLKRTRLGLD

T8: human NDR2 (residues 25-88), N-terminal regulatory domain (NTR) (human, UniProt Q9Y2H1 25-88)
T8 chain: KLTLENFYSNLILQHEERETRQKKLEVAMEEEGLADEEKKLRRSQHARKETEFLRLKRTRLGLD

T9: non-phosphorylated full-length MOB1A wild-type (human, UniProt Q9H8S9 1-216)
T9 construct: human MOB1A, full length; pET28a vector; also called unphosphorylated full-length MOB1; non-phosphorylated MOB1; source: E. coli, purified as MOB1A (33-216) (Ni-NTA)
T9 sequence (looked up): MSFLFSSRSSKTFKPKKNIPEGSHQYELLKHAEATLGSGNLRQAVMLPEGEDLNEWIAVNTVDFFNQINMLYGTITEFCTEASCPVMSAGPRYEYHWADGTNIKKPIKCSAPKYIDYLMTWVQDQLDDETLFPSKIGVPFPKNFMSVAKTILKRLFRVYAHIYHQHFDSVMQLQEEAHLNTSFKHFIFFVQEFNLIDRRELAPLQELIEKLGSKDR

T10: unphosphorylated full-length MOB1A(K104E/K105E), recombinant (human, UniProt Q9H8S9 1-216, K104E | K105E)
T10 construct: human MOB1A, full length; also called Unphosphorylated MOB1(K104E/K105E); MOB1(K104E/K104E); source: E. coli, purified as MOB1A (33-216) (Ni-NTA)
T10 sequence (looked up): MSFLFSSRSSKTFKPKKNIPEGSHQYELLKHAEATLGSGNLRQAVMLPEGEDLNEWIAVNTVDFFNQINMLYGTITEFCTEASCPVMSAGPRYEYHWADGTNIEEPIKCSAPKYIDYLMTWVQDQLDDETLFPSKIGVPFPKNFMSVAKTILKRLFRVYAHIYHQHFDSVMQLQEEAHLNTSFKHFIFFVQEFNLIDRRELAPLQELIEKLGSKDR

T11: phospho-MOB1(K104E/K105E), full length, recombinant (human, UniProt Q9H8S9 1-216, K104E | K105E, phosphorylated in vitro by MST2 (residues 2-308); the paper names Thr12 and Thr35 as the MST1/2 phosphorylation sites of MOB1)
T11 construct: human MOB1A, full length; source: E. coli, purified (Ni-NTA), then phosphorylated in vitro by MST2 (2-308)
T11 sequence (looked up): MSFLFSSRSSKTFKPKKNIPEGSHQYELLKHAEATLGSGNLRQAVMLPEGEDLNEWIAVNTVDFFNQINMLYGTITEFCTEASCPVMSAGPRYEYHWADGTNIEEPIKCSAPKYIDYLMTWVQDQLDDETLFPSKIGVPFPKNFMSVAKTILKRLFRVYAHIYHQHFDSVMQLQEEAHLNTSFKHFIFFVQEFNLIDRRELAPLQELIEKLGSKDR

T12: unphosphorylated full-length MOB1A(K104E/K105E), recombinant (human, UniProt Q9H8S9 1-216, K104E | K105E)
T12 sequence: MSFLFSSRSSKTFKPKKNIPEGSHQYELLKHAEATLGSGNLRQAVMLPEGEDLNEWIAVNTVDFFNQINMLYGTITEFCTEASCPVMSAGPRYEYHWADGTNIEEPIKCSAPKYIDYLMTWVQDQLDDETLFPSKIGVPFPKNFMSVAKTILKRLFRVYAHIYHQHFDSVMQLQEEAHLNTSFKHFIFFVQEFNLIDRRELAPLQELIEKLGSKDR

B1: NDR1 (24-87, Y31V) (domain or fragment)
chain: KVTLENFVSNLIAQHEEREMRQKKLEKVMEEEGLKDEEKRLRRSAHARKETEFLRLKRTRLGLE
B2: LATS1 (640-703, V647Y) (domain or fragment, human, UniProt O95835 640-703, looked up)
chain: KFFMEQHYENVLKSHQQRLHRKKQLENEMMRVGLSQDAQDQMRKMLCQKESNYIRLKRAKMDKS
notes: human LATS1, residues 640-703 (NTR); also called LATS1(V647Y); source: E. coli BL21(DE3), purified (Ni-NTA)
B3: human NDR1 (residues 24-87), NTR (domain or fragment, UniProt Q15208 24-87, looked up)
chain: KVTLENFYSNLIAQHEEREMRQKKLEKVMEEEGLKDEEKRLRRSAHARKETEFLRLKRTRLGLE
notes: human NDR1, residues 24-87 (NTR); also called NTR of NDR1; source: E. coli BL21(DE3), purified (Ni-NTA)
B4: LATS2 (603-666, V610Y) (domain or fragment, human, UniProt Q9NRM7 603-666, looked up)
chain: KFFMEQHYENVIKTYQQKVNRRLQLEQEMAKAGLCEAEQEQMRKILYQKESNYNRLKRAKMDKS
notes: human LATS2, residues 603-666 (NTR), codon-optimized synthetic gene; also called LATS2(V610Y); source: E. coli BL21(DE3), purified (Ni-NTA)
B5: NDR2 (25-88, Y32V) (domain or fragment)
chain: KLTLENFVSNLILQHEERETRQKKLEVAMEEEGLADEEKKLRRSQHARKETEFLRLKRTRLGLD

Tests used:
[1] = target: T1, phospho-MOB1(K104E/K105E), full length, …; experiment: ITC; phosphorylated MOB1
LATS2 (603-666, V610Y) [2] = target: T2, LATS2 (603-666, V610Y); experiment: ITC; MOB1 phosphorylated by MST2
[3] = target: T3, human LATS2 (residues 603-666), NTR; experiment: ITC; MOB1 phosphorylated by MST2
NDR1 (24-87, Y31V) [4] = target: B1; experiment: ITC; MOB1 phosphorylated by MST2
[5] = target: T4, human NDR1 (residues 24-87), NTR; experiment: ITC; MOB1 phosphorylated by MST2
LATS1 (640-703, V647Y) [6] = target: T5, LATS1 (640-703, V647Y); experiment: ITC; MOB1 phosphorylated by MST2
[7] = target: T6, human LATS1 (residues 640-703), NTR; experiment: ITC; MOB1 phosphorylated by MST2
NDR2 (25-88, Y32V) = target: B5; experiment: ITC; MOB1 phosphorylated by MST2
NDR1 (24-87, Y31V) [8] = target: B1; experiment: ITC; 25 °C, ITC200; 25 mM HEPES pH 7.5, 200 mM NaCl, 1 mM EDTA; ~240 μM MOB1A injected (20 x 2 μl) into ~24 μM NDR1, NDR2, LATS1 or LATS2 fragment in the cell; single-site model
LATS1 (640-703, V647Y) [9] = target: B2; experiment: as above; conditions: both partners purified
[10] = target: T7, human NDR2 (residues 25-88), N-terminal …; experiment: as above; conditions: both partners purified
[11] = target: B3; experiment: as above; conditions: both partners purified
LATS2 (603-666, V610Y) [12] = target: B4; experiment: as above; conditions: both partners purified
[13] = target: T8, human NDR2 (residues 25-88), N-terminal …; experiment: ITC
LATS1 (640-703, V647Y) [14] = target: T5, LATS1 (640-703, V647Y); experiment: ITC
LATS2 (603-666, V610Y) [15] = target: T2, LATS2 (603-666, V610Y); experiment: ITC
[16] = target: T4, human NDR1 (residues 24-87), NTR; experiment: ITC
[17] = target: T9, non-phosphorylated full-length MOB1A …; experiment: ITC; 25 °C, ITC200; 25 mM HEPES pH 7.5, 200 mM NaCl, 1 mM EDTA; ~240 μM MOB1A injected (20 x 2 μl) into ~24 μM NDR1, NDR2, LATS1 or LATS2 fragment in the cell; single-site model; conditions: both partners purified
[18] = target: T10, unphosphorylated full-length …; experiment: as above; conditions: both partners purified
[19] = target: T11, phospho-MOB1(K104E/K105E), full length, …; experiment: as above; conditions: both partners purified
[20] = target: T12, unphosphorylated full-length …; experiment: ITC

| Binder | Kd [1] [µM] | binding result [17] | binding result [18] | binding result [19] | Kd [20] [µM] | further results |
| --- | --- | --- | --- | --- | --- | --- |
| B1 | 2.34 |  |  |  |  |  |
| MST2-phosphorylated full-length MOB1A (phospho-MOB1) (natural protein, human, UniProt Q9H8S9 1-216, looked up, phosphorylated in vitro by MST2 (residues 2-308); the paper names Thr12 and Thr35 as the MST1/2 phosphorylation sites of MOB1, human MOB1A, full length; the methods describe the phosphorylation reaction for MOB1A (33-216); results and legend call phospho-MOB1 full length; also called MST1/2-phosphorylated full-length MOB1; source: E. coli, purified (Ni-NTA), then phosphorylated in vitro by MST2 (2-308)) MSFLFSSRSSKTFKPKKNIPEGSHQYELLKHAEATLGSGNLRQAVMLPEGEDLNEWIAVNTVDFFNQINMLYGTITEFCTEASCPVMSAGPRYEYHWADGTNIKKPIKCSAPKYIDYLMTWVQDQLDDETLFPSKIGVPFPKNFMSVAKTILKRLFRVYAHIYHQHFDSVMQLQEEAHLNTSFKHFIFFVQEFNLIDRRELAPLQELIEKLGSKDR |  |  |  |  |  | Kd (LATS2 (603-666, V610Y) [2]): 1.54 µM; Kd [3]: 8.93 µM; Kd (NDR1 (24-87, Y31V) [4]): 2.82 µM; Kd [5]: 0.136 µM; Kd (LATS1 (640-703, V647Y) [6]): 4.42 µM; Kd [7]: 19.6 µM; Kd (NDR2 (25-88, Y32V)): 9.9 µM; fold decrease in affinity against wild-type NDR1 (NDR1 (24-87, Y31V) [8]): 20 fold; fold increase in affinity against wild-type LATS1 (LATS1 (640-703, V647Y) [9]): 5 fold; fold increase in affinity against LATS1 or LATS2 [10]: ≥ 15 fold; fold increase in affinity against LATS1 or LATS2 [11]: ≥ 15 fold; fold increase in affinity against wild-type LATS2 (LATS2 (603-666, V610Y) [12]): 5 fold; Kd [13]: 0.578 µM |
| non-phosphorylated full-length MOB1A wild-type (natural protein) MSFLFSSRSSKTFKPKKNIPEGSHQYELLKHAEATLGSGNLRQAVMLPEGEDLNEWIAVNTVDFFNQINMLYGTITEFCTEASCPVMSAGPRYEYHWADGTNIKKPIKCSAPKYIDYLMTWVQDQLDDETLFPSKIGVPFPKNFMSVAKTILKRLFRVYAHIYHQHFDSVMQLQEEAHLNTSFKHFIFFVQEFNLIDRRELAPLQELIEKLGSKDR |  |  |  |  |  | Kd (LATS1 (640-703, V647Y) [14]): 16.9 µM; Kd [13]: 12.3 µM; Kd (LATS2 (603-666, V610Y) [15]): 11.5 µM; Kd [16]: 8.06 µM |
| B2 | 3.83 | binds | binds | binds | 14.1 |  |
| human LATS2 (residues 603-666), NTR (domain or fragment, UniProt Q9NRM7 603-666, looked up, human LATS2, residues 603-666 (NTR), codon-optimized synthetic gene; also called NTR of LATS2; source: E. coli BL21(DE3), purified (Ni-NTA)) KFFMEQHVENVIKTYQQKVNRRLQLEQEMAKAGLCEAEQEQMRKILYQKESNYNRLKRAKMDKS | 8.4 |  |  | binds |  |  |
| B3 | 0.124 | binds | binds | binds | 7.94 |  |
| human LATS1 (residues 640-703), NTR (domain or fragment, UniProt O95835 640-703, looked up, human LATS1, residues 640-703 (NTR); also called LATS1 (640-703); LATS1 wild-type; source: E. coli BL21(DE3), purified (Ni-NTA)) KFFMEQHVENVLKSHQQRLHRKKQLENEMMRVGLSQDAQDQMRKMLCQKESNYIRLKRAKMDKS | 16.2 |  |  | binds |  |  |
| B4 | 1.3 | binds | binds | binds | 12.2 |  |
| B5 | 8.7 |  |  |  |  |  |
